Experimental data taken from patent US20210401786A1, “COMPOSITION FOR TREATING BURN WOUNDS” (priority 2020, published 2021).

Tested on: human non-healing burn wounds
Assay: Wound healing in patients with non-healing burn wounds
Assay type: in vivo
Conditions: for Wound healing time (X +/− S): patients, completely healed cases
Protocol: In this application, medical records of 430 patients, including 368 male and 60 female, aged from 1 to 70 years old, with a clinical diagnosis of at least one non-healing burn wound were collected. The burn injury includes 150 cases of hydrothermal burns, 167 cases of flame burns, 84 cases of electric burns, and 29 cases of chemical burns. […] The non-healing wounds of 430 patients were treated with the composition of Example 3 of the present invention (49 cases), surgery (197 cases), and conventional treatment (rhEGF therapy) (184 cases). There were no statistically significant differences observed among the groups in terms of gender, age, and wound area (p>0.05) (The comparison results of the differences in terms of various factors are shown in Tables 5, 6 and 7).
Among the 49 patients in the present invention, the wound was completely healed in 31 cases (63.27%), effectively healed in 15 cases (30.61%), improved in 2 cases (4.08%), and not healed in 1 case (2.04%). Among the 197 patients in the surgery group, the wound was completely healed in 152 cases (77.15%), effectively healed in 39 cases (19.80%), improved in 6 cases (3.05%), and not healed in 0 case (0%). Among the 184 patients in the conventional treatment group, the wound was completely healed in 96 cases (52.17%), effectively healed in 56 cases (30.43%), improved in 24 cases (13.05%), and not healed in 8 cases (4.35%). The effect of the present invention on wound healing is analyzed by the total effective rate after receiving different treatments. The total effective rate=(the number of completely healed cases+the number of effectively healed cases)/total number of cases.
The wound healing time of the present invention group, surgery group and conventional dressing group is 19.87±9.10 days, 22.71±11.77 days and 36.71±10.60 days, respectively. […] There is no significant difference in wound healing time between the present invention group and the surgery group (P>0.05).

[1] = patients with non-healing burn wounds
[2] = patients with non-healing burn wounds, listed as conventional treatment

B1: Conventional treatment: conventional treatment (rhEGF therapy) of patients' non-healing burn wounds (protein, UniProt P01133 23-1207, looked up)
Pro-epidermal growth factor: PQHWSCPEGTLAGNGNSTCVGPAPFLIFSHGNSIFRIDTEGTNYEQLVVDAGVSVIMDFHYNEKRIYWVDLERQLLQRVFLNGSRQERVCNIEKNVSGMAINWINEEVIWSNQQEGIITVTDMKGNNSHILLSALKYPANVAVDPVERFIFWSSEVAGSLYRADLDGVGVKALLETSEKITAVSLDVLDKRLFWIQYNREGSNSLICSCDYDGGSVHISKHPTQHNLFAMSLFGDRIFYSTWKMKTIWIANKHTGKDMVRINLHSSFVPLGELKVVHPLAQPKAEDDTWEPEQKLCKLRKGNCSSTVCGQDLQSHLCMCAEGYALSRDRKYCEDVNECAFWNHGCTLGCKNTPGSYYCTCPVGFVLLPDGKRCHQLVSCPRNVSECSHDCVLTSEGPLCFCPEGSVLERDGKTCSGCSSPDNGGCSQLCVPLSPVSWECDCFPGYDLQLDEKSCAASGPQPFLLFANSQDIRHMHFDGTDYGTLLSQQMGMVYALDHDPVENKIYFAHTALKWIERANMDGSQRERLIEEGVDVPEGLAVDWIGRRFYWTDRGKSLIGRSDLNGKRSKIITKENISQPRGIAVHPMAKRLFWTDTGINPRIESSSLQGLGRLVIASSDLIWPSGITIDFLTDKLYWCDAKQSVIEMANLDGSKRRRLTQNDVGHPFAVAVFEDYVWFSDWAMPSVMRVNKRTGKDRVRLQGSMLKPSSLVVVHPLAKPGADPCLYQNGGCEHICKKRLGTAWCSCREGFMKASDGKTCLALDGHQLLAGGEVDLKNQVTPLDILSKTRVSEDNITESQHMLVAEIMVSDQDDCAPVGCSMYARCISEGEDATCQCLKGFAGDGKLCSDIDECEMGVPVCPPASSKCINTEGGYVCRCSEGYQGDGIHCLDIDECQLGEHSCGENASCTNTEGGYTCMCAGRLSEPGLICPDSTPPPHLREDDHHYSVRNSDSECPLSHDGYCLHDGVCMYIEALDKYACNCVVGYIGERCQYRDLKWWELRHAGHGQQQKVIVVAVCVVVLVMLLLLSLWGAHYYRTQKLLSKNPKNPYEESSRDVRSRRPADTEDGMSSCPQPWFVVIKEHQDLKNGGQPVAGEDGQAADGSMQPTSWRQEPQLCGMGTEQGCWIPVSSDKGSCPQVMERSFHMPSYGTQTLEGGVEKPHSLLSANPLWQQRALDPPHQMELTQ
modifications: Pro-epidermal growth factor
notes: conventional treatment (rhEGF therapy) of patients' non-healing burn wounds
Total effective rate (%) ((completely healed + effectively healed cases)/total number of cases): 82.61% ^ | Completely healed case (%) [1]: (52.17%) | Completely healed case, number [1]: 96 cases | Effectively healed case (%) [1]: (30.43%) | Effectively healed case, number [1]: 56 cases | Improved case (%) [1]: (13.05%) | Improved case, number [1]: 24 cases | Not healed case (%) [1]: (4.35%) | Not healed case, number [1]: 8 cases | Completely healed case (%) [2]: 52.17% | Effectively healed case (%) [2]: 30.43% | Improved case (%) [2]: 13.05% | Not healed case (%) [2]: 4.35% | Wound healing time (X +/− S): 36.71 ± 10.60^ days | Wound healing time (X +/− S) (listed as conventional dressing): 36.71 ± 10.60 days
